14 substances from article PMC13181761, “New Analogs of the Compstatin Family of Clinical Complement Inhibitors with Low Picomolar Target Affinity” (Journal of Medicinal Chemistry, 2026) can be followed below.

Experiment [1] deals with human C3b (human) (UniProt P01024). Put plainly: SPR; Biacore T200; human C3b amine-coupled; multicycle kinetics, serial 2-fold dilutions of peptide, 120 s injection, 180 s dissociation, regeneration 1 M NaCl; 25 °C, HBST pH 7.4; Langmuir 1:1 fit, KD = kd/ka; mean of 3 experiments.
Experiment [2] has the same target. In words: SPR; Biacore T200; human C3b amine-coupled; 25 °C, HBST pH 7.4; KD determined as steady state affinity. (In SPR one partner is held on a chip, and binding of the other changes the refractive index at the surface.)
Experiment [3] has the same target.
The target is the same in experiment [4]. Put plainly: SPR; Biacore T200; human C3b amine-coupled; single-cycle kinetics, 5 increasing concentrations (0.5-40 nM), final dissociation 100-240 min; 25 °C, HBST pH 7.4; global Langmuir 1:1 fit; mean of 3 experiments.
For experiment [5] the target is unchanged. This is another data set of the same source.

As for Cp01 Arg11Lys analog (peptide), in the experiment with human C3b (human) [1], the Kd – broadly, the concentration at which binding is half-saturated – turned out to be 502 nM; the dissociation rate constant (koff) (in general, a measure of how fast the partners let go of each other) amounted to 0.15 s⁻¹; the kon (as a rule, the second-order rate constant of association) came out at 300000 M⁻¹ s⁻¹.
For Cp01 Arg11Ser analog (peptide) the same measures were 529 nM, 0.16 s⁻¹ and 330000 M⁻¹ s⁻¹.
As for Cp01 Asp6Asn analog (peptide), in the experiment with human C3b (human) [1], the Kd is 219 nM, the dissociation rate constant (koff) turned out to be 0.11 s⁻¹ and the association rate constant (kon) stood at 540000 M⁻¹ s⁻¹.
In the experiment with human C3b (human) [1], Cp01 Asp6Glu analog (peptide) displayed a dissociation constant Kd of 528 nM, a koff of 0.18 s⁻¹ and a kon of 380000 M⁻¹ s⁻¹.
For the substance Cp01 Asp6Ser analog (peptide), in the experiment with human C3b (human) [1], the Kd was 609 nM, the off-rate constant (koff) is 0.18 s⁻¹ and the kon amounted to 310000 M⁻¹ s⁻¹.
In the experiment with human C3b (human) [1], Cp01 Val3Leu analog (peptide) yielded a Kd of 552 nM, a koff of 0.11 s⁻¹ and a kon of 200000 M⁻¹ s⁻¹.
The substance Cp01 aIle3 analog (peptide) showed a dissociation constant Kd with human C3b (human) [2] of 545 nM.
In the experiment with human C3b (human) [3], Cp01-V3I (peptide) yielded an IC50 of inhibition of alternative pathway complement activation (AP ELISA, diluted normal human serum; the target in serum is C3) of 200 nM and an IC50 of inhibition of classical pathway complement activation (CP ELISA, diluted normal human serum; the target in serum is C3) of 430 nM. In the experiment with human C3b (human) [1], this substance returned a Kd of 19.8 nM, a koff of 0.017 s⁻¹ and an association rate constant (kon) of 880000 M⁻¹ s⁻¹.
On to Cp05 Ile3 analog (peptide), for which, in the experiment with human C3b (human) [1], the dissociation constant Kd is 1.5 nM, the koff turned out to be 0.002 s⁻¹ and the kon is 1.14e+06 M⁻¹ s⁻¹.
For Cp40 aIle3 analog (peptide), in the experiment with human C3b (human) [4], the equilibrium dissociation constant (Kd) is 15.6 nM, the off-rate (koff) turned out to be 0.007 s⁻¹ and the on-rate constant (kon) turned out to be 460000 M⁻¹ s⁻¹.
Take compstatin analog Cp01 (peptide): in the experiment with human C3b (human) [3], the IC50 of inhibition of alternative pathway complement activation (AP ELISA, diluted normal human serum; the target in serum is C3) turned out to be 1400 nM and the IC50 of inhibition of classical pathway complement activation (CP ELISA, diluted normal human serum; the target in serum is C3) was determined as 20000 nM.
In the experiment with human C3b (human) [1], compstatin analog Cp05 (peptide) came in with a Kd of 46.8 nM, a koff of 0.014 s⁻¹ and a kon of 300000 M⁻¹ s⁻¹.
In the experiment with human C3b (human) [4], compstatin analog Cp40 (peptide) displayed a dissociation constant (Kd) of 0.7 nM, a koff of 0.001 s⁻¹ and an association rate constant (kon) of 1.76e+06 M⁻¹ s⁻¹. The substance also yielded an IC50 of inhibition of classical pathway complement activation (CP ELISA, 5% human serum) in the experiment with human C3b (human) [5] of 158 nM.
For the substance compstatin analog Cp60 (peptide), in the experiment with human C3b (human) [4], the Kd is 0.08 nM, the koff is 0.0001 s⁻¹, the on-rate constant (kon) came out at 1.76e+06 M⁻¹ s⁻¹ and the target residence is above 100 min. In the experiment with human C3b (human) [5], this substance came in with an IC50 of inhibition of classical pathway complement activation (CP ELISA, 5% human serum) of 97 nM.
